Laboratory results as given in the nanobody polyreactivity screen of Harvey et al. (2022).

Assay: yeast display, Sf9 membrane polyspecificity reagent, FACS + sequencing; frameworks hold sequencing errors
Procedure, shortened: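 Synthetic nanobody libraries on Saccharomyces cerevisiae BJ5465 were galactose-induced for 36–48 hours, stained 1 hour at 4 °C with 10% biotinylated, detergent-solubilized Sf9 membrane reagent and enriched on streptavidin microbeads. FACS then separated cells into low and high (top ~1%) gates by anti-HA (expression) and streptavidin (reagent binding) fluorescence. Genes were colony-PCR amplified, MiSeq 2 × 250 sequenced and CDR-length filtered. A clone's polyreactivity label is that of its gate of origin.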
In the case of “QVQLVESGGGLVQAGGSLRLICAASGRIFKLYAMGWYRQAPGKERELVASINSGGGSTNYADSVKGRFTISRDNAKNTVYLQMNSLKPEDPAVYYCAKCYRRVYGPFFYWGQGTQVTVSS”, the “polyreactivity (PSR sort gate)” value is reported as “low polyreactivity”. With “QVQLVESGGGLVQAGGSLRLSCAASGLTFSSYAMGWYRQAPGKERELVAAITRGGRTQYADSVKGRFTISRDNAKNTVYLQMNSLKPEDTAVYYCARSGNYYYWGQGTQVTVSS” the “polyreactivity (PSR sort gate)” value was “high polyreactivity”. In the case of “QVQLVESGGGLVQAGGSLRLSCAASGSIFKQYDMGWYRQAPGKERDLVAAITASDGSTYYADSVKGRFTISRDNAMNTVYLQMNSLKPEDTAVYFCAADGGVAWGYGYCGQGTQVTVSS”, the “polyreactivity (PSR sort gate)” value is reported as “low polyreactivity”. For “QVQLVESGGGLVQAGGSLRLSCAASGFTYGRYAMGWYRQAPRKERELVAAISFSGGRTYYADSVKGRFTISRDNAKNTVYLQMKSLKPEDTAVYYCAARRRQEHVGRSSYARYDYWGQGTQVTVSA”, the “polyreactivity (PSR sort gate)” value was “high polyreactivity”. For “QVQLVESGGGLVQAGGSLRLSCAASGSTFGYYTMGRYRQAPGKERELVAAITWSGGTTYYAESVKGRFTISRDNAKNPVYLQMNSLKPEDTAVYYCATRPWYYASPRTRFGSWGQGTQVTVSS”, the “polyreactivity (PSR sort gate)” value was “high polyreactivity”. For “QVQLVESGGGFVQAGGSLRLSCAASGFTFRKYARGWYRQAPGNERELVAVINIVGSTYYADSVKGRFTISRDNAKNTVYLQMNSLKPEDTAVYYCAADWSYRLKYYWYGGFNYWGQGTQVTVSS”, the “polyreactivity (PSR sort gate)” value was “high polyreactivity”. For “QVQLVESGGGLVQAGGSLRLSCAASGFTFRYYAMGRSRQAPGKERELVAAITGSGVNTYYADSVKGRFTISRDNAKNTVYLQMNSLKPEDTAVYYCAAESESDPLFDRYYWGQGTQVTVSS”, the “polyreactivity (PSR sort gate)” value was “high polyreactivity”. In the case of “QVQLVESGGGLVQAGGSLRLSCAASGSIYSHYAMGWYRQAPGKERELVAAITKSGSTTYYADSVKGRFTSSRDNAKNTVYLQMNSLKPEDTAVYDCWGQGTQVTVSS”, the “polyreactivity (PSR sort gate)” value is reported as “low polyreactivity”. With “QVQLVESGGGLVQAGGSLRLSCAASGSIFYNNAMGWYRQAPGKERELVAAISWRGGSTYYADSVKGRFTISRDNAKNTVYLQMNSLKPEDTAVYYCNAGVRYRGFDYWGQGTQVTVSS” the “polyreactivity (PSR sort gate)” value was “high polyreactivity”. With “QVHLVESGGGLVQAGGSLRLSCAASGFIFHSYAMGWYRQAPGKERELVASISRGGGSTYYADSVKGRFTISRDNAKNTVYLQMNSLKTEDTAVYYCNAVWRSNSRFDYWGQGTQVTVSS” the “polyreactivity (PSR sort gate)” value was “high polyreactivity”. In the case of “QVQLVESGGGLVQAGGSLRLSCAASGRIFQRYAMGWYRQAPGKERELVAAITTGGRTYYADSVKGRFTISRDNAKNTVYLQMNSLKPEDTAVYYCAARFVGSRYRFDYWGQGTQVTVSS”, the “polyreactivity (PSR sort gate)” value is reported as “high polyreactivity”. In the case of “QGQLVESGGGLVQAGGSIRLSCAASGSTTFYAMGWYRQAPGKEWELVATISSSAGSTYYADSVKGRFTISRDNAKNTVYLQMNSLKPEDTAFYYCAKAAYGNSYTSDYWGQGTQVTVSS”, the “polyreactivity (PSR sort gate)” value is reported as “low polyreactivity”. For “QVQLVESGGGLVQAGASLRLSCAASGIIVHEYAMGWYRQAPGKERELVASISWNDGSTYADSVKGRFTISRDNAKITVYLQMNCLKPEDTAVYYCAADYPYYPFSSIYDYWGQGTQVTVSS”, the “polyreactivity (PSR sort gate)” value was “low polyreactivity”. In the case of “QVQLVESGGGLVQAGGSLRLSCSASGIIFIYYGMGWYRKAPGTERELVAAISRSGGRTYYADSVKGRFTISRDNANNIVYLQMNSLKPEDTAVYYCATTYTPTGFDYWGQGTQVTVSS”, the “polyreactivity (PSR sort gate)” value is reported as “high polyreactivity”. For “QVQLVESGGGLVQSGGSLRLSCAASGSTFGFYAMGGYRQAPGKERELVAAISRGGSTNYADSVKGRFTISRDNAKNTVSCQMNSLKPEDTAVYYCAKAYHATSYYWGQGTQVTVSS”, the “polyreactivity (PSR sort gate)” value was “low polyreactivity”. In the case of “QVQLVESGGGLVQAGGSLRLSCAASGITFYVYAMGWYRQPPGTERDLVAAISRRGGSTSYADSVKGRFTISRDTAKNTVYLEMNSLKPEDTAVDYCAAGPFYGGIVRRYDYWGQGTQVTVSS”, the “polyreactivity (PSR sort gate)” value is reported as “low polyreactivity”. With “QDQLVESGGGLVQAGGSLRLSCDASGSIFSPYAMGWYRQAPGKEREFVAAITYSGGRTYYADSVKGRFTISRDNPKNTVYFQMNSLKPEDTAVYYCAATYSSYDHYWFVYWGQATQVTVSS” the “polyreactivity (PSR sort gate)” value was “low polyreactivity”. For “QVQRVESGGGLVQAGGSLRLSCAASGSTFYTNAMGWYRQAPGKERELVASITGGGSTYYADSVKGRFTISRDNAKNTVYLQMNSLKPEDTAVYYCAADNFGGGWEFDSWGQGTQVTVSS”, the “polyreactivity (PSR sort gate)” value was “low polyreactivity”. For “QVQLVESGGGLVQAGGSLRLSCAASGYTFTHNAIGWYRQAPGKERELVATIRNSGSRTYYADSVKGRFTISRDNGKNTVYLQMNSLKPEDTAVYYCAARLLYRHFGYWGQGTQVTVSS”, the “polyreactivity (PSR sort gate)” value was “high polyreactivity”. With “QVQLVESGGGLVQAGGSLRLSCAASGFTFYYYAMGWSRQAPGKERELVASISKRGGTYYADSVKGRFTISRDNAKNTVYLQMNSLKPEDTAVYYCAAGIPRQAYKFYWGQGTQVTVSS” the “polyreactivity (PSR sort gate)” value was “high polyreactivity”. In the case of “QEQLQESGGGLVQAGGTLRLSCSASGTISPLPAMGWYRQSPGKEREFVAGIDTGAITNYADSVKGRFTISRDNAKNTVYLQMNSLKPEDTAVYYCAVFPAAYDYYERYYTYWGQGTQVTVCS”, the “polyreactivity (PSR sort gate)” value is reported as “low polyreactivity”. In the case of “QVQLVESGGGLVQAGGSLRLSCAASGRIFGYYAMGWYRQAPGKERELVAAINWRGGNTNYADSVKGRFTISRDNAKNTVYLQMNSLKPEDTSVYYCNAQVLVRPIQGEYGYWGQGTQVTVSS”, the “polyreactivity (PSR sort gate)” value is reported as “low polyreactivity”. With “QCQLVESGGGLVQAGGSLLLSCAASGFIFNRNAMGWSRQAPGKEREFVSAISTLGAGTYYADSVKGRFTISRDNAKNTVYLQMNSLKPEDTAVYYCAADIFRYGYYNRYSKVGYDYWGQGTQVTVSS” the “polyreactivity (PSR sort gate)” value was “high polyreactivity”. For “QVQLLESGGGLGQAGGRLRLICAASGRTFTPYAMGWYRPAPGKERELVAAIDTSGGSTYADSVKGRFTISRDNAKNTVYLQMNCQKPEDTAVYYCATRGFYSWDYWYLWEYDYWGQGTQVTVSS”, the “polyreactivity (PSR sort gate)” value was “low polyreactivity”. With “QVQLVESGGGLVQAGGSLRLSCAASGSTFAGHAMGWSRQAPGKERELVAAITFSGGRTDYADSVKGRFTISRDNAKNTVYLQMNSLIPEDTAVYYCAAPADDTVHYQNYYWGQGTQVTVSS” the “polyreactivity (PSR sort gate)” value was “low polyreactivity”. For “QVQLVESGGALVQAGGSLRLSCAASGFTFRGYAMGWYRQAPGKEMELVAAIRGGGGRTYYADSVKGRFTISRDNAKNTVYLQMNSLKPEDTAGYYCAASYYDYSDVRSDYWGQGTQVTVSS”, the “polyreactivity (PSR sort gate)” value was “high polyreactivity”. With “QVQLVESGGGLVQAGGSLRLSCAASGRIFFDYAMGWYRQAPGKERELGADISYNGGSTNYADSVKGRFTISRDNAKNTVYLQMISLKPEDTAVYYCNRALVPVYDLDYYWGQGTQVTVSS” the “polyreactivity (PSR sort gate)” value was “low polyreactivity”. For “QVQLVESGGGLVQAGGSLRLSCAASGRIFYHNTMGWYRQAPGKERELVAAITTSGSTYYADSVKGRFTISRDNAKNSVYLQMNSLKPEDTSVYYCAARALRWFNYWGQGTQVTVSS”, the “polyreactivity (PSR sort gate)” value was “high polyreactivity”. In the case of “QVQLLERGGGLVQAGGSLRLSCMASGSILVDRMSWYRQAPGKEHELVATIYDGGITYYADSMTGRFTISRDNAKNTVYLQMIRQRPEDTAVYYCGASFERYRYHVYCGQGTQVTVSS”, the “polyreactivity (PSR sort gate)” value is reported as “low polyreactivity”. With “QVQLVETGGGLVQAGGSLRLSCAASGYTLPANGKGWYRQAPGKDRELVAAISFIAGSTYYADSVNGRFTISRDNAKNTVYLQMNSLKPEDTAGYYCATQFPRSTIYDYWGQGTQVTVSS” the “polyreactivity (PSR sort gate)” value was “low polyreactivity”. For “QVQLVESGGGLVQAGGSLRLSCAASGNTFYYAMGWYTQAPGKERELVASIRTGGSTNYADSVKGRFTISRDNAKNTVYLQMNSLKPEDTAVYYCNRDGTYSHTGWDYWRPYEYWGQGTQVTVSS”, the “polyreactivity (PSR sort gate)” value was “low polyreactivity”. In the case of “QVQLVESGGGLVQAGGSLRLSCAASGFTFSYYAMGWYRQAPGKERELVAAITSSAGSTYYADSVKGRFTISRDNAKNTVYLQMNSLKPEDTAVYYCNAVYSKLNGGYDYWGQGTQVTVSS”, the “polyreactivity (PSR sort gate)” value is reported as “low polyreactivity”. In the case of “QVQLVESGGGLVQAGGSLRLSCAASGRILYGYAMGWYRQAPGKERELVASITWSGGSTYADSVKGRFTISRDNAKNTVYLQMNSLKPEDTAVYYCATRRGPKWQWLTYGYWGQGTQVTVSS”, the “polyreactivity (PSR sort gate)” value is reported as “low polyreactivity”. For “QVQLVESGGGLVQAGGSLRLSCAASGIIFRYYAMGWYRQAPGKERELVATITIGGRTNYADSVKGRFTISRDNAKNTVYLQMNCLKPEDTAVYYCASRVYKYGSVYHRYDYWGQGTQVTVSS”, the “polyreactivity (PSR sort gate)” value was “high polyreactivity”. With “QVQLVESGGGLVQAGGSLRLSCAASGFTFPYYAMGWYRQAPGKERELVATISNGGNTYYADSVKGRFTISRDNAKNTVYLQMNSLKPEDTAVYYCNAVVWAWMGYWGQGTQVTVSS” the “polyreactivity (PSR sort gate)” value was “high polyreactivity”. For “QVQLVESGGGLVQAGGSLRLSCAASGSTFYTYAMGWYRQAPGKERELVAAISADGGRTYYADSVKGRFTISRDNAKNTVYLQMNSLKPEDTAVYYCAAEERRWSSYRYYYWGQGTQVTVSS”, the “polyreactivity (PSR sort gate)” value was “high polyreactivity”. In the case of “QVQLVESGGGLVQAGGSLRLICDASGIYYRNAMGWYRQAPGKEREMVAAISWSGGSTYYADSVKGRFTISRDNAKNTVYLQMNSLNPEDTAVYYCAAVGGRYPSNVLGYYYWGQGTQVTVSS”, the “polyreactivity (PSR sort gate)” value is reported as “high polyreactivity”. In the case of “QVQLVESGGGLVQAGGSLRLSCAASGITFIVNTMGWYRQAPGKEREFVATISANSDGTYYADSVKGRFTISRDIAKNTVYLQKNSLKPEDTAVYYWGQGTQVTVSS”, the “polyreactivity (PSR sort gate)” value is reported as “low polyreactivity”. In the case of “QVQLVESGGGIVQAGGSLRLSCAASGRIFGHYAMGWYRPAPGKERELVAAITKNGDSTYYADSVKGRFTISRDNAKNRVYLPMNSLKPEDTAVYYCNAVYDLVCGEGYDSWGQGTQVTVSS”, the “polyreactivity (PSR sort gate)” value is reported as “low polyreactivity”. In the case of “QVQLVESGGGLVQAGGSLRLSCAASGFNFNYNAMGRYREAPGKERELVAAISTSGSSTYYADSVKGRFTISRDNAKNTVYLQMNSLKPEDTAVYYCAARRSTRHRYRVGTCYKYDYWGQGTQVTVSS”, the “polyreactivity (PSR sort gate)” value is reported as “high polyreactivity”. In the case of “QVQLVESGGGLVQAGGSLRLSCAASGFTFAPNAMGWYRPAPGKEWELVAAISSASSTYYADSVKGRFTISRDNAKYNVYLQMKSLLPEDTAVYYCNAYYWFGPGRDYWGQGTQVTVSS”, the “polyreactivity (PSR sort gate)” value is reported as “high polyreactivity”. With “QVQHVESGGGLVQAGGSLRLSCPASGLTVGGYAMGWYRQAPGKERELVAAISLSGGRTYYADSVKGRFTISRDIPMITVYLLMNSLKPEVSAVYYCAASILVVYLREDYWGQGTQVTVSS” the “polyreactivity (PSR sort gate)” value was “high polyreactivity”. In the case of “QVQLVESGGGLVQAGGSLRLTCAASGRIAWYRQAPGKERELVAAITSGDRTNYADSVKRRFTISRDNAKNTVYFQMNSLKPEDTAVYYCATEPSWYHGFIDPRGYWGQGTQVTVSS”, the “polyreactivity (PSR sort gate)” value is reported as “low polyreactivity”.
